In publication PMC9512702:
Several values for one entry are separate records, joined by “and”; a condition that tells them apart may be missing. Equal entries are not always repeated.

Legend:
SIH-11 = experiment: AUC
[1] = target: mammalian expressed RBD (mRBD) of SARS-CoV-2 spike (SARS-CoV-2), P0DTC2; experiment: SPR
SIH-13 = experiment: AUC
SIH-7 = experiment: AUC

| Binder | stoichiometry N (SIH-11) | Kd [1] [nM] | stoichiometry N (SIH-13) | stoichiometry N (SIH-7) |
| --- | --- | --- | --- | --- |
| DKEWILQKIYEIMRLLDELADAEASMRVSDLIYEFMKK (designed binder, modifications not checked) [SIH-11] | 3.2 | 1.3 | – | – |
| DKEWILQKIFEIMRLLDELADAEASMRVSDLIYEFMKK (designed binder, modifications not checked) [SIH-13] | – | 1.6 | 9.5 and 17.7 | – |
| DKEWILQKIFEIMRLLDELADAEASMRVSDLIYEFMKK (designed binder, modifications not checked) [SIH-7] | – | 2.9 | – | 4.1 and 7.9 |
